# Patent publication US20240270826A1 (NATIONAL RESEARCH COUNCIL OF CANADA, published 2024)
# B1: NRCoV2-MRed11 VHH-Fc (Fc fusion)
# chain: EVQLVESGGGLVQAGGSLRLSCAASGFTFSSYAMSWHRQAPGKGLEWVSAINSGGGSTSYADSVKGRFAISRDNAKNTLYLQMNSLKPEDTAVYYCATTISDGSSWSTKSYRGQGTQVTVSS
# notes: bivalent VHH-Fc
# B2: NRCoV2-17 VHH-Fc (Fc fusion)
# chain: EVQLQQSGGGLVQTGGSLRLSCAAAGSPFSQLAMSWYRQISGKERAWVASISPTGNRSYSKIAKGRFTISRDNAKNTVTLQMTSLKPEDTAAYICQAANVNGGDYWGQGTQVTVSS
# notes: bivalent VHH-Fc
# B3: NRCoV2-SR13 VHH-Fc (Fc fusion)
# chain: EVQLVESGGGLVTTGGSLRLSCATSGSRFGSKHMAWYRQAPGKQRDLVAAISSGGSTHYGSSVKGRFTISRDNAKSTVYLQMNSLNPEDTAVFYCNMGGWDYRSNTYIPGSRSDYWGQGTQVTVSS
# notes: bivalent VHH-Fc
# B4: NRCoV2-20 VHH-Fc (Fc fusion)
# chain: EVQLQQSGGGLVQPGGSLRLSCAASGRTFSNYVVGWFRQAPQAPGKDHEFVAVISGSDTETYYADSVKGRFTISRDNAKNTVYLQMNSLKPEDTAVYYCAADRGMSYYYTRATEYYYWGQGTQVTVSS
# notes: bivalent VHH-Fc
# B5: NRCoV2-12 VHH-Fc (Fc fusion)
# chain: EVQLQQSGGGLVQAGGSLRLSCAASGRTFRNYVMGWFRQAPQAPGKDHEFVAAISWGGTEIYYADSVKGRFTISRDNAKNTVYLQMNSLKPEDTAVYYCAADRGLSYYYTRTTEYNYWGQGTQVTVSS
# notes: bivalent VHH-Fc
# B6: NRCoV2-SR01 VHH-Fc (Fc fusion)
# chain: EVQLVQSGGGSVQAGGSLRLSCVASGFTFDNYAIGWFRQAPGKEREGVSCISGNGGVTIYADSVKGRFTISRDNAKNLVYLQMNSLKPEDTAVYYCAATGIRSTWSVYGCSRLAGPYDYWGQGTQVTVSS
# notes: bivalent VHH-Fc
# B7: NRCoV2-18 VHH-Fc (Fc fusion)
# chain: EVQLVESGGGLVQAGGSLRLSCVASGITISGYNMAWWRQTRGKQTERVAFINSGGSTTYSDSVKGRFTISRDNGKNTAYLQMNSLNAEDTADYFCSLHTSHDYWGQGTQVTVSS
# notes: bivalent VHH-Fc
# B8: NRCoV2-11 VHH-Fc (Fc fusion)
# chain: EVQLVSSGGGLVQPGGSLRLSCAASGSSLDSYSVSWFRQAPGKEREWISFISRYYSSTYYTDSVKGRFTTSRDGDQKTVHLQMNSLKPEDTAVYYCAARSRDFSSPFSATDTYTSWGQGTQVTVSS
# notes: bivalent VHH-Fc
# B9: NRCoV2-07 VHH-Fc (Fc fusion)
# chain: QVQLVQSGGGLVQPGGSLRLSCAASGVTLDYYAIGWFRQAPGKEREAVSCISSNGRRNHYVASVRGRFTISRDNAKSTVYLQMNSLKPEDTAVYYCAAVQDVHGDNYYCTSPNEYNVWGQGTQVTVSS
# notes: bivalent VHH-Fc
# B10: NRCoV2-MRed04 VHH-Fc (Fc fusion)
# chain: EVQLVESGGGLVQPGRSLRLSCAASGNSFSISTMGWFRQAPGKERELVASIWSDTTTSYADSVKGRFTISTDNTRTKVYLQMSSLNPEDTAVYYCAADRGFVVRGQYDYWGQGTQVTVSS
# notes: bivalent VHH-Fc
# Target: SARS-CoV spike (S) (SARS-CoV, UniProt P59594 14-1195)
# Experiment: ELISA
row,Binder,binding result
1,B1,no binding (tested: 13 nM)
2,B2,no binding (tested: 13 nM)

# Target: T1, SARS-CoV-2 S1 (aa16-685) (Wuhan) (SARS-CoV-2 Wuhan, UniProt P0DTC2 16-685)
# T1 construct: NRC; FLAG, 6xHis tags
# Experiment: ELISA
row,Binder,binding result
1,B1,no binding (tested: 13 nM)

# Target: T2, SARS-CoV-2 S2 (aa686-1208) (Wuhan) (SARS-CoV-2 Wuhan, UniProt P0DTC2 686-1208)
# T2 construct: NRC; FLAG, 6xHis tags
# Experiment: ELISA
row,Binder,binding result
1,B2,no binding (tested: 13 nM)

# Target: SARS-CoV-2 S1-NTD (aa16-305) (SARS-CoV-2 Wuhan, UniProt P0DTC2 16-305)
# Experiment: ELISA
row,Binder,binding result
1,B1,no binding (tested: 13 nM)
2,B2,no binding (tested: 13 nM)

# Target: T3, SARS-CoV-2 S on CHO-S cells (SARS-CoV-2, UniProt P0DTC2 14-1273)
# T3 construct: whole, on cells
# Experiment: flow cytometry, CHO-S cells
Binder,Bmax,EC50
B1,3250,2.9 nM
B2,19000,0.4 nM

# Target: Human SARS-CoV-2_Wuhan S (SmT1) (SARS-CoV-2 (Wuhan), UniProt P0DTC2 14-1208)
# Experiment: flow cytometry SVNA: VHH-Fc inhibits S binding to ACE2 on Vero E6 cells
row,Binder,IC50
1,B3,7.7 nM
2,B4,6.5 nM
3,B5,3.5 nM
4,B6,4.2 nM
5,B7,9.1 nM
6,B8,3.2 nM
7,B9,4.7 nM
8,B10,5 nM

# Target: Human SARS-CoV S (SARS-CoV, UniProt P59594 14-1190)
# Experiment: as above
row,Binder,IC50
1,B3,15 nM
2,B4,10.3 nM
3,B5,3.1 nM
4,B6,5.1 nM
5,B7,12.7 nM
6,B8,7.7 nM
7,B9,4.2 nM
8,B10,24.6 nM
